Among the data in patent US20030148283 are binding signal values, retold here.

The target in this data set is T1, Tma endonuclease V H116A H116A (Thermotoga maritima) (UniProt Q9X2H9).
T1 sequence: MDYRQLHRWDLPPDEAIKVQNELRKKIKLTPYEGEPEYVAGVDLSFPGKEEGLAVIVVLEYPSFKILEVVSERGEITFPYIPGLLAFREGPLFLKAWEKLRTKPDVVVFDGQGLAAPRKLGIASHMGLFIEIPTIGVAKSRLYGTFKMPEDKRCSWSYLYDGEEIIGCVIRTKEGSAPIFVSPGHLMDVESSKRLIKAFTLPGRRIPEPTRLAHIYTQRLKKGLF
Kind of data set: EMSA. The note with it: deoxyinosine; MgCl2; bound about half as tightly as wt. In general terms: A gel shift assay detects complexes by their altered migration in electrophoresis.

Consider nicked I/A product, for which the binding signal was 0.5 fold of wt.
